Assay [1] concerns the target protein kinase A, catalytic subunit. The experiment in a line: cell-based or functional assay.
For a further assay, the target named is protein kinase B (UniProt P31749). The experiment in a line: cell-based or functional assay.

From US7407939 come the findings set out here.

Where no end group is shown, it is not given here. [ ]: non-standard residue; d: D form. The star is where a group is joined. X1 = 5‑aminoethylsulfonamide isoquinoline, O=S(=O)(NCCN*)c1cccc2cnccc12; hLeu = CC(C)CC[C@H](N)C(=O)O; Orn = NCCC[C@H](N)C(=O)O; Dab = NCC[C@H](N)C(=O)O; Nva = CCC[C@H](N)C(=O)O; Abu = CC[C@H](N)C(=O)O; Dap = NC[C@H](N)C(=O)O; GlyNH2 = aminoglycine

protein kinase B, sequence (P31749 whole entry): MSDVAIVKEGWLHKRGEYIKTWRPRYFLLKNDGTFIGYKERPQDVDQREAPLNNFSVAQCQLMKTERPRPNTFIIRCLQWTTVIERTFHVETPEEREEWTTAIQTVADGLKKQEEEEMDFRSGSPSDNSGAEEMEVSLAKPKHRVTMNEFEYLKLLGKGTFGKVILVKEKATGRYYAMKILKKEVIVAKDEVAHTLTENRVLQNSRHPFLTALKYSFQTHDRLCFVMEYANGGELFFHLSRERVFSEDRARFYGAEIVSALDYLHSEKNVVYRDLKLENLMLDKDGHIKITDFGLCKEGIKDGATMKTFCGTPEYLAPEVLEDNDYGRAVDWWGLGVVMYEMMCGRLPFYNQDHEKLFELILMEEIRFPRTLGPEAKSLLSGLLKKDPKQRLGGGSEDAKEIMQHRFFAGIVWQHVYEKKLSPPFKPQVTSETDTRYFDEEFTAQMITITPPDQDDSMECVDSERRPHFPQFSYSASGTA

With RPR[Nva]TA[hLeu] [60005-84], the % Inhibition PKA in assay [1] was determined as 7%. In the assay with protein kinase B, this molecule returned a % Inhibition PKB I of 39% and a % Inhibition PKB II of 48%.

With RPR[Orn]E(X1)[Dab][hLeu] (not fully specified (C-terminus)) [TY-60020-10], in assay [1], the % inhibition of kinase activity at 1 µM; PKA-kinase Assay 1 was found to be 92% and the % inhibition of kinase activity at 1 µM; PKA-kinase Assay 2 was determined as 94%. In the assay with protein kinase B, this molecule yielded a % inhibition of kinase activity at 1 µM; PKB-kinase (spa) Assay 1 of 45% and a % inhibition of kinase activity at 1 µM; PKB-kinase (spa) Assay 2 of 48%.

In the case of RPRT[Abu][Dap]F [60002-88], the % Inhibition PKA in assay [1] was -3%. The molecule also displayed a % Inhibition PKB I in the assay with protein kinase B of 40%.

As for RPR[Nva]GA[hLeu] [60006-18A], in assay [1], the % Inhibition PKA stood at 11% and the IC50 µM PKA was over 100 µM. In the assay with protein kinase B, this molecule displayed a % Inhibition PKB I of 47%, a % Inhibition PKB II of 52% and an IC50 µM PKB of 9.45 µM.

RPR[Nva]S[GlyNH2][hLeu] [60005-75]: in assay [1], the % Inhibition PKA was -4%. In addition, in the assay with protein kinase B, the % Inhibition PKB I was 70% and the % Inhibition PKB II is 70%.

On to RPR[Nva]SAF [60002-38], for which, in assay [1], the % Inhibition PKA was -2% and the IC50 µM PKA turned out to be 80 µM. In addition, in the assay with protein kinase B, the % Inhibition PKB I was 43% and the IC50 µM PKB was 18 µM.

On to RPR[Orn]E(X1)[Dab]F (not fully specified (C-terminus)) [TY-60020-9], for which, in assay [1], the % inhibition of kinase activity at 1 µM; PKA-kinase Assay 1 was 96% and the % inhibition of kinase activity at 1 µM; PKA-kinase Assay 2 was 97%. In the assay with protein kinase B, the % inhibition of kinase activity at 1 µM; PKB-kinase (spa) Assay 1 was 71% and the % inhibition of kinase activity at 1 µM; PKB-kinase (spa) Assay 2 was determined as 57%.

With RPR[Orn]E(X1)[Orn]F (not fully specified (C-terminus)) [TY-60020-11], in assay [1], the % inhibition of kinase activity at 1 µM; PKA-kinase Assay 1 is 95% and the % inhibition of kinase activity at 1 µM; PKA-kinase Assay 2 was found to be 96%. In the assay with protein kinase B, this molecule yielded a % inhibition of kinase activity at 1 µM; PKB-kinase (spa) Assay 1 of 58% and a % inhibition of kinase activity at 1 µM; PKB-kinase (spa) Assay 2 of 52%.
